US20220017630A1 (JIANGSU SIMCERE PHARMACEUTICAL, published 2022)

T1: human CREG-His protein (human, UniProt O75629 32-220, limits assumed)
T1 construct: Control antigen in ELISA; also called control human CREG-His
T1 sequence (looked up): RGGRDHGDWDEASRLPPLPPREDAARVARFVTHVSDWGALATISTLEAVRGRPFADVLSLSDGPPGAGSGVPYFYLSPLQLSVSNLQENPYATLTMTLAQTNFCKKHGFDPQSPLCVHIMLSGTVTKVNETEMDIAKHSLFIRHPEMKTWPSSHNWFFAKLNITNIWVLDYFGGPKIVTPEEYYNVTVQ

T2: Human TNFR2 recombinant protein (Sino 10417-H08H) (human, UniProt P20333 23-257)
T2 construct: also called hTNFR2 (His tag)
T2 sequence (looked up): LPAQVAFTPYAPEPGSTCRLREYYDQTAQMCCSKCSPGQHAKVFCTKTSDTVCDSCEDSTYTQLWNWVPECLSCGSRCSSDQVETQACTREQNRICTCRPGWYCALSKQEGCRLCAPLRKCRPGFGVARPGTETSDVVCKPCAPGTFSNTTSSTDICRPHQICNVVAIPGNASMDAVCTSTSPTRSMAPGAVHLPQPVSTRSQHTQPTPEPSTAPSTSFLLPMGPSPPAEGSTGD

T3: cynomolgus TNFR2 (Sino 90102-C08H) (cynomolgus, UniProt A0A2K5VET2 132-366)
T3 construct: also called CynoTNFR2 (His tag)
T3 sequence: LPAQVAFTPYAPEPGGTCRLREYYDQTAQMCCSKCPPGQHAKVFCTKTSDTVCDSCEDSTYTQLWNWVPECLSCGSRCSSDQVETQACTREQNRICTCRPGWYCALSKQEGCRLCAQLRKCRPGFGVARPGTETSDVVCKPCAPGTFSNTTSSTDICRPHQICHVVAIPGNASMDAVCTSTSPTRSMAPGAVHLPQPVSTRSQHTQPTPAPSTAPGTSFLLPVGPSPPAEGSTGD

T4: human TNFR2 on the cell surface (CHO-TNFR2 cells; human Treg cells) (human, UniProt P20333 23-461)
T4 construct: whole, on cells; The assay field of each row says which cells; also called TNFR2-CHO cell; TNFR2 on Treg cells
T4 sequence (looked up): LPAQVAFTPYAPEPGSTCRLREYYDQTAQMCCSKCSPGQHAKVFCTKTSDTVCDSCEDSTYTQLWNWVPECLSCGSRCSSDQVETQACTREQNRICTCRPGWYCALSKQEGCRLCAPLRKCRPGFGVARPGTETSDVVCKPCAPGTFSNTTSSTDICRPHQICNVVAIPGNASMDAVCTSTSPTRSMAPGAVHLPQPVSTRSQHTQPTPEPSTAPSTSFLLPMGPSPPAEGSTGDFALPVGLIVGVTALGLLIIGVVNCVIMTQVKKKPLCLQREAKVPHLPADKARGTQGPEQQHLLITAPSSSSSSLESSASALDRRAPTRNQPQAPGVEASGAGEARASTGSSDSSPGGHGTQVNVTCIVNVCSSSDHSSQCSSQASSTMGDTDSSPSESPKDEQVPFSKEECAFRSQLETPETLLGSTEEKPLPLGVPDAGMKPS

T5: human TNFR2 (Novoprotein, Catalog No. C830) (human, UniProt P20333 23-257, limits assumed)
T5 construct: construct not described; also called TNFR2 protein
T5 sequence (looked up): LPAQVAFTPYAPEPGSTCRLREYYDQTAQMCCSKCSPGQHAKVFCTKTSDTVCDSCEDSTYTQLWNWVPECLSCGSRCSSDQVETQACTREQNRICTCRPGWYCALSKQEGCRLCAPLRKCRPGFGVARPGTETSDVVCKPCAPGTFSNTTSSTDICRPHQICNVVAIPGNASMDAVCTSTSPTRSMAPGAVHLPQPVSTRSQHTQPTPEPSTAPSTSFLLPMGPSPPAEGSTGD


Key:
human CREG-His protein = biological target: T1, human CREG-His protein; assay: ELISA
[1] = biological target: T2, Human TNFR2 recombinant protein (Sino …); assay: SPR Biacore, antibody on Protein A chip, TNFR2 analyte
Protocol: (§1) In this experiment, Protein A chip was used, and the time required for the chip to capture the diluted antibody was determined by manual run, so that the Rmax of the saturated binding antigen was 50 RU. Human TNFR2 (Sino 10417-H08H) and cynomolgus TNFR2 (Sino 90102-C08H) were diluted to 32, 16, 8, 4, 2 nM. The affinity of antibody and antigen was measured by multi-cycle kinetics. In each cycle, anti-TNFR2 antibodies were injected prior to the injection of gradient concentrations of TNFR2 protein allowing the occurrence of antibody-antigen association and dissociation. After each cycle, the Protein A chip was regenerated with Glycine pH1.5 (to remove the protein on the chip). BIAcore T200 analysis software was used to calculate the affinity KD of antibody binding to antigen.

[2] = biological target: T3, cynomolgus TNFR2 (Sino 90102-C08H); assay: as above
Protocol: as §1

[3] = biological target: T4, human TNFR2 on the cell surface …; assay: flow cytometry, blocking of TNFα-biotin on CHO-TNFR2 cells
[4] = biological target: T5, human TNFR2 (Novoprotein, Catalog No. …); assay: blocking ELISA, TNFα-biotin on coated human TNFR2, antibody 20 nM
Protocol: (§2) A microplate was pre-coated with 100 μl/well of 1 μg/ml human TNFR2 (Novoprotein, Catalog No. C830). […] After washing the plate, a Streptavidin-HRP working solution (1:10000 dilution) was added at 100 μl/well, and incubated with shaking at room temperature for 40 min. The plate was washed again, the HRP substrate TMB was added for color development, the termination solution was added to terminate the reaction, and the microplate reader was used to read the absorption value.

[5] = biological target: T5, human TNFR2 (Novoprotein, Catalog No. …); assay: blocking ELISA, TNFα-biotin on coated human TNFR2; 002# OD / antibody OD x 100
Protocol: as §2

[6] = biological target: T4, human TNFR2 on the cell surface …; assay: flow cytometry, blocking of TNFα-biotin on CHO-TNFR2 cells; AUC for 002# / AUC for antibody x 100
Protocol: CHO cells that stably overexpressed human TNFR2 were used for experiments. The cells were resuscitated and passaged until in good state, and the expression level of human TNFR2 on the cells was assessed by FACS. Compared to the isotype control, the assay could be carried out when the fold change of mean fluorescence intensity (MFI) was more than 100 times.
CHO-TNFR2 cells were digested, washed twice with DPBS and stained with Live/Dead (L/D) at room temperature for 20 min, and then seeded at 1×10⁵ cells/50 μl/well. […] The diluted antibodies were added 50 μl/well into wells pre-seeded with cells, and gently blown and mixed to make the final concentrations of the antibodies to 20, 6.67, 2.22, 0.74, 0.247, 0.08, 0.027 and 0 nM, respectively followed by incubation at 4° C. for 30 min. […] After washing twice with the staining buffer, 100 μl/well of PE-streptavidin was added and incubated at 4° C. for 30 min. After additional washing with the staining buffer twice, 150 μl resuspended cells was analyzed using an flow cytometry. Taking the logarithmic value of the antibody concentrations as abscissa and the corresponding MFI value as ordinate, the inhibition curve of the antibody was drawn, and the IC50 value was calculated by four parameters fitting.

| binding result (human CREG-His protein) | Kd [1] [nM] | koff [1] [s⁻¹] | kon [1] [M⁻¹ s⁻¹] | Kd [2] [nM] | koff [2] [s⁻¹] | kon [2] [M⁻¹ s⁻¹] | Antibody AUC [3] | ELISA OD of antibodies to be tested (20 nM) [4] [OD] | % to 002# OD (2 nM) [5] [%] | % to 002# OD (20 nM) [5] [%] | AUC % [6] [%] | Binder |
| --- | --- | --- | --- | --- | --- | --- | --- | --- | --- | --- | --- | --- |
| no binding (tested: 28 ng/ml) | 1.41 | 0.00225 | 1.59e+06 | 0.943 | 0.00243 | 2.57e+06 | 10700 | 0.474 | 88.2 | 106 | 116 | TNFR2 antibody #352 (antibody, V domains shown) VH: EVQLQESGPGLVAPSQSLSITCTVSGFSLTSYGVHWVRQPPGKGLEWLVVIWSDGGTTYNSALKSRLSISKDNSKSQVFLKMNSLQTDDTAMYYCARHDDDGYYAMDYWGQGTTVTVSS VL: DIVLTQSPSLMSASPGEKVTMTCSASSSVGYMYWYQQKPRSSPKPWIYLTSNLASGVPARFSGSGSGTSYSLTISSMEVEDAATYYCQQWSSDPFTFGSGTKLEIK |
| no binding (tested: 28 ng/ml) | 0.952 | 0.00209 | 2.2e+06 | 0.752 | 0.00308 | 4.1e+06 | 10600 | 0.418 | 124 | 120 | 117 | TNFR2 antibody #365 (antibody, V domains shown) VH: EVQLQESGPGLVQPSQSLSITCTVSGFSLTSYGVHWVRQSPGKGLEWLGLIWSDGSPDYSAAFISRLSINKDNSKSQVFFKMNSLQADDTAIYYCARNDDGGDYVMDYWGQGTTVTVSS VL: EIVLTQSPALMSASPGEKVTMTCSASSSVSYMYWYQQKPRSSPKPWIYLTSNLASGVPARFSGSGSGTSYSLTISSMEAEDAATYYCQQWTSNPLTFGAGTKLEIK |
| no binding (tested: 28 ng/ml) | 0.14 | 0.000237 | 1.7e+06 | 0.0977 | 0.000276 | 2.83e+06 | 14900 | 0.282 | 138 | 178 | 107 | TNFR2 antibody #395 (antibody, V domains shown) VH: EVQLQESGPVLVQPSQSLSITCTVSGFSLTSYSVHWVRQSPGKGLEWLGVIWSDGGTDYSAAFISRLSISKDNSKSQVFFKMNSLQADDTAIYYCARNDDGGDYAMDYWGQGTTVTVSS VL: EIVLTQSPALMSASPGEKVTMTCSASSSVSYMYWYQQKPRSSPKPWIYLTSNLASGVPARFSGSGSGTSYSLTISSMEAEDAATYYCQQWSSNPLTFGAGTKLEIK |
| no binding (tested: 12 ng/mL) | 1.44 | 0.000748 | 519000 | 2.48 | 0.00212 | 854000 | 27800 | 0.34 | 75.9 | 96.6 | 92.4 | TNFR2 antibody #309 (antibody, V domains shown) VH: EVQLQESGAELVKPGASVKLSCKASGYTFTSYWIHWVKLRPGQGFEWIGEINPNNGGTDYNEKFKRKATLTVDKSSSTAYMELSSLTSEDSAIYYCTIDSMITTTWFAYWGQGTTVTVSS VL: EIVMTQSQKLMSTVVGDRVSVTCKASQNVGTNVAWFQQKPGQSPKALINSASYRYSGVPDRFTGSGSGTDFTLTISSVQSEDLAEYFCQQYNSYPFTFGSGTKLEIK |
